From publication PMC7360965 (The EMBO Journal, 2020)
Ends that are not written are not given here.

Molecular target: F-actin (filamentous actin), actin purified from chicken breast (Gallus gallus) (chicken (Gallus gallus), UniProt P68139 1-377)
Test: co-sedimentation
Conditions: both partners purified

Binder	Kd [nM]
MGVADLIKKFESIS (not fully specified (N-terminus); also: FAM label, position not given here, source: synthetic peptide (custom synthesized, LifeTein, USA)) [FAM-lifeAct-14 peptide (carboxy-terminal truncated version of lifeAct)]	1200
Human UTRN-ABD (amino acids 1-261) H29A (domain or fragment, source: E. coli Rosetta DE3, purified (His-Trap, Superdex-200)) MAKYGEHEASPDNGQNEFSDIIKSRSDEANDVQKKTFTKWINARFSKSGKPPINDMFTDLKDGRKLLDLLEGLTGTSLPKERGSTRVHALNNVNRVLQVLHQNNVELVNIGGTDIVDGNHKLTLGLLWSIILHWQVKDVMKDVMSDLQQTNSEKILLSWVRQTTRPYSQVNVLNFTTSWTDGLAFNAVLHRHKPDLFSWDKVVKMSPIERLEHAFSKAQTYLGIEKLLDPEDVAVQLPDKKSIIMYLTSLFEVLPQQVTID	2800
Human UTRN-ABD (amino acids 1-261) I22D (domain or fragment, source: E. coli Rosetta DE3, purified (His-Trap, Superdex-200)) MAKYGEHEASPDNGQNEFSDIDKSRSDEHNDVQKKTFTKWINARFSKSGKPPINDMFTDLKDGRKLLDLLEGLTGTSLPKERGSTRVHALNNVNRVLQVLHQNNVELVNIGGTDIVDGNHKLTLGLLWSIILHWQVKDVMKDVMSDLQQTNSEKILLSWVRQTTRPYSQVNVLNFTTSWTDGLAFNAVLHRHKPDLFSWDKVVKMSPIERLEHAFSKAQTYLGIEKLLDPEDVAVQLPDKKSIIMYLTSLFEVLPQQVTID	38000
Human UTRN-ABD (amino acids 1-261) V87D (domain or fragment, also called UTRN-V87D; source: E. coli Rosetta DE3, purified (His-Trap, Superdex-200)) MAKYGEHEASPDNGQNEFSDIIKSRSDEHNDVQKKTFTKWINARFSKSGKPPINDMFTDLKDGRKLLDLLEGLTGTSLPKERGSTRDHALNNVNRVLQVLHQNNVELVNIGGTDIVDGNHKLTLGLLWSIILHWQVKDVMKDVMSDLQQTNSEKILLSWVRQTTRPYSQVNVLNFTTSWTDGLAFNAVLHRHKPDLFSWDKVVKMSPIERLEHAFSKAQTYLGIEKLLDPEDVAVQLPDKKSIIMYLTSLFEVLPQQVTID	> 100000
Human UTRN-ABD (amino acids 1-261) N109A (domain or fragment, source: E. coli Rosetta DE3, purified (His-Trap, Superdex-200)) MAKYGEHEASPDNGQNEFSDIIKSRSDEHNDVQKKTFTKWINARFSKSGKPPINDMFTDLKDGRKLLDLLEGLTGTSLPKERGSTRVHALNNVNRVLQVLHQNNVELVAIGGTDIVDGNHKLTLGLLWSIILHWQVKDVMKDVMSDLQQTNSEKILLSWVRQTTRPYSQVNVLNFTTSWTDGLAFNAVLHRHKPDLFSWDKVVKMSPIERLEHAFSKAQTYLGIEKLLDPEDVAVQLPDKKSIIMYLTSLFEVLPQQVTID	55000
MGVADLIKKFESISKEE (also: FAM label, position not given here, also called lifeAct peptide; source: synthetic peptide (custom synthesized, LifeTein, USA)) [FAM-lifeAct-17 peptide (full-length lifeAct)]	2200
